According to US20200009238A1 (UNIVERSITETET I OSLO, published 2020):

What was measured:
[1] = target: HLA-A2 single-chain trimer (SCT) combined with MART-1 peptide; test: flow cytometry; SupT1 cells expressing SCT-MART-1, 10 nM sTcR 15 min at RT, anti-His-PE
[2] = target: MART-1 peptide on HLA-A2, on HLA-A2 positive SupT1 cells expressing Iiwt MART-1; test: flow cytometry; HLA-A2 positive SupT1 cells expressing Iiwt MART-1, 10 nM sTcR, anti-His-PE
[3] = target: MART-1 peptide on HLA-A2, on HLA-A2 positive SupT1 cells expressing Ii L17A/RRP MART-1; test: flow cytometry; HLA-A2 positive SupT1 cells expressing Ii L17A/RRP MART-1, 10 nM sTcR, anti-His-PE
[4] = target: the molecule itself; test: self-association (trimer); western blot of boiled and non-boiled whole cell lysates of transfected Hek cells, anti Ii M-B741
Procedure: Hek cells were transfected as indicated. After 24 hours, whole cell lysates (WCL) were subjected to 4-20% SDS-PAGE Tris-HEPES-SDS gels, transferred to PVDF membranes and probed with anti Ii antibody, M-B741. The samples were either boiled or non-boiled before gel loading. Ii trimers and monomers are shown. Detection of actin in the WCL was used as loading control using anti-actin antibodies.
In order to function as a chaperone for MHC II antigen presentation, Ii depends on two important features; the ability to trimerize[17] and to traffic to the endosomal pathway. The trimerization of IiRRP/L17A was analyzed by western blotting (WB).

soluble form of DMF5 (MART-1 specific TcR)
MFI [1]: 37000 MFI
percent of cells stained [1]: 100%
MFI [2]: 105 MFI
percent of cells stained [2]: 2%
MFI [3]: 194 MFI
percent of cells stained [3]: 21%

B1: human invariant chain Iip33 wild type (other)
chain: MDDQRDLISNNEQLPMLGRRPGAPESKCSRGALYTGFSILVTLLLAGQATTAYFLYQQQGRLDKLTVTSQNLQLENLRMKLPKPPKPVSKMRMATPLLMQALPMGALPQGPMQNATKYGNMTEDHVMHLLQNADPLKVYPPLKGSFPENLRHLKNTMETIDWKVFESWMHHWLLFEMSRHSLEQKPTDAPPKESLELEDPSSGLGVTKQDLGPVPM
notes: Full length protein expressed in transfected Hek cells and analysed in whole cell lysates; also called Iiwt; Ii wt
binding result [4]: binds

B2: invariant chain double leucine mutant Ii L7A/L17A (other)
chain: MDDQRDAISNNEQLPMAGRRPGAPESKCSRGALYTGFSILVTLLLAGQATTAYFLYQQQGRLDKLTVTSQNLQLENLRMKLPKPPKPVSKMRMATPLLMQALPMGALPQGPMQNATKYGNMTEDHVMHLLQNADPLKVYPPLKGSFPENLRHLKNTMETIDWKVFESWMHHWLLFEMSRHSLEQKPTDAPPKESLELEDPSSGLGVTKQDLGPVPM
notes: Expressed in Hek cells and analysed in lysates
binding result [4]: binds

B3: invariant chain trafficking mutant Ii RRP/L17A (other)
chain: MDDRRPLISNNEQLPMAGRRPGAPESKCSRGALYTGFSILVTLLLAGQATTAYFLYQQQGRLDKLTVTSQNLQLENLRMKLPKPPKPVSKMRMATPLLMQALPMGALPQGPMQNATKYGNMTEDHVMHLLQNADPLKVYPPLKGSFPENLRHLKNTMETIDWKVFESWMHHWLLFEMSRHSLEQKPTDAPPKESLELEDPSSGLGVTKQDLGPVPM
notes: Expressed in Hek cells and analysed in lysates; also called IiL17A/RRP; Ii L17A RRP
binding result [4]: binds
